The record followed here is the nanobody polyreactivity screen of Harvey et al. (2022).

The data set in a line: yeast display, Sf9 membrane polyspecificity reagent, FACS + sequencing; frameworks hold sequencing errors. In short, it runs like this:
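Sorting gates, low and high (top ~1%), were placed on anti-HA fluorescence to track expression and on streptavidin fluorescence to track reagent binding. A clone's polyreactivity label is taken from the gate it came out of. The reagent was 10% biotinylated, detergent-solubilized Sf9 membrane, applied for 1 hour at 4 °C to galactose-induced yeast display cells.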
Regarding “QVQLVESGGGLVQAGGSLRLSCAASGTSGYYAMGWNRQAPGKERELVAGISIGGSTNYADSVKGRFTISRDNAKNTVYLQMNSLKTEDTAVYYCAVDGYVAFSPDRNNYWGQVTQVTVSS”, the “polyreactivity (PSR sort gate)” value is listed as “low polyreactivity”.

For “QVQLVESGGGLVQAGGSLRLSCAASGTTFPLYAMGWYRQAPGKERELVAAITSVGSTYYADSVKGRFTISRDNAKNTVYLQMNSLKPEDTAVYDCAAANYTYASRWYDYWGQGTQVTVSS”, the “polyreactivity (PSR sort gate)” value is recorded as “low polyreactivity”.

Take “QVQLVESGGGLVQAGGSLRLSCAASGTTFRANAMGWYRQAPAKERELVAAITSGGSTNYADSVKGRFTISRDNAKNTVYLQMNSLKPEDTAVYYCAKETYYGTDNFGQVGGEMDYWGQGNQVTVSS”: the “polyreactivity (PSR sort gate)” value was “low polyreactivity”.

Regarding “QVQLVESGGGLVQAGGSLRLSCAASGTTFRFYAMGLYRQAPGKERELDAAINGSGGSTYYADSVKGRFTISRDNAKNTVYFQMISMKPEDTAVYYCAADGVPDALDRDYWGQGTQVNVSS”, the “polyreactivity (PSR sort gate)” value is recorded as “low polyreactivity”.

Consider “QVQLVESGGGLVQAGGSLRLSCAASGTTFTAYAMGWYREAPGKERELVAAINWSGGTTYYADSVKGRFTISRDNAKNTVYLQMTSLKPEDTAVYYCAVDGNFFVEVSPYDYWGQGTQVTVSS”, for which the “polyreactivity (PSR sort gate)” value is listed as “low polyreactivity”.

For “QVQLVESGGGLVQAGGSLRLSCAASGTTFYGYVMGWYRQAPGKQREWVAAISSSGGRTYYADSVKGRFTISRDNAKNTVYLQMNSLNPEDTAVYYCNTVQRYSTHYDYWGQGTQVTVSS”, the “polyreactivity (PSR sort gate)” value was “high polyreactivity”.

As to “QVQLVESGGGLVQAGGSLRLSCAASGTTIQGYAMGWYRQAPGKERELVAAISGSGGTTYYADSVKGRFTISRDNAKNTVYLQMNSLKPEDTAVYYCAAYVFYNFGVYTRGYYYWGQGTQVTVSS”, the “polyreactivity (PSR sort gate)” value was “high polyreactivity”.

Take “QVQLVESGGGLVQAGGSLRLSCAASGVIFYRNAMGWYRQAPGKERELVATIRYSGGSTYYADSVKGRFTISRDNAKNTVYLEMNSLKPEDSAVYYCNARRWYLPRRSGYGYWGQGTVVTVSS”: the “polyreactivity (PSR sort gate)” value was “high polyreactivity”.

Take “QVQLVESGGGLVQAGGSLRLSCAASGVTFDAYVMGWYRQAPRKERELVAGIYSGGSTYYADSVKGRFTISRDNAKNTVYLQMNSLKPEDTAVYYCARENYRFAHEPPVSRQIPYDYWGQGTQVTVSS”: the “polyreactivity (PSR sort gate)” value was “low polyreactivity”.

“QVQLVESGGGLVQAGGSLRLSCAASGVTFESYDMGWYRQAHGKERELVAAITWDGGSTYYADSVKGRFTISRDNAKNTVYLQMNSLKPEDTAVYYCAADFGTISIDVYSWMDYWGQGTQVTVSS”: the “polyreactivity (PSR sort gate)” value is “low polyreactivity”.

Consider “QVQLVESGGGLVQAGGSLRLSCAASGVTFQFYARGWYREAPGKERELVAAISRRGGRTDYADSVTGRFTISRDNAKNTAYLQMNSLKPEDTAVYYCARDPGAFEYWGQGTQVTVSS”, for which the “polyreactivity (PSR sort gate)” value is recorded as “high polyreactivity”.

For the sequence “QVQLVESGGGLVQAGGSLRLSCAASGVTFYHNAMGSYRQAPGKERELVAAISSSGDSTYYADSVKGRFTISRDNAKNTVYLHMNSLKPEDTAVYYCNDYFYYLSLYYYYWFNYDYWGQGTQVTVSS”, the “polyreactivity (PSR sort gate)” value is given as “low polyreactivity”.

With “QVQLVESGGGLVQAGGSLRLSCAASGYFDLNAMGWYRQAPGKERELVAAITDGGSTNYADSVKGRFTISRDNAKNTVYLQMNSLKPEDTAVYYCAADRGHTILHGGYWGQGTQVTVSS”, the “polyreactivity (PSR sort gate)” value is listed as “low polyreactivity”.

In the case of “QVQLVESGGGLVQAGGSLRLSCAASGYIFDAYAMGWYRQAPGKERELVAAIDIGGSTYYADSVKGRFTISRDNAKNTVYLQMNSLKPEDTAVYYCAEWFYFDQWDYAREYWGQGTQVTVSS”, the “polyreactivity (PSR sort gate)” value is listed as “low polyreactivity”.

As to “QVQLVESGGGLVQAGGSLRLSCAASGYIFDPNAMGWYRQAPGKERELVAAISGSGTSTYYADSVKGRFTISRDNAKNTVYLQMNSLKPEDTAVYYCAAAHDAGPVRYYYWGQGTQVTVSS”, the “polyreactivity (PSR sort gate)” value is reported as “low polyreactivity”.

Regarding “QVQLVESGGGLVQAGGSLRLSCAASGYIFDVNAMGWSRPAPGKESELVASISRSGASTYYADSVKGRFTISRDNAKNTVYLQMNSLQPEDTAVYYCNAVSRYCEYDSWGQGTQVTVSS”, the “polyreactivity (PSR sort gate)” value is given as “high polyreactivity”.
